# Data published in patent US20150344570A1 (published 2015).
# T1: FcγRIIb extracellular domain with C-terminal His tag (human, UniProt P31994 43-217)
# T1 construct: extracellular domain; also called FcgRIIb; 2b
# T1 sequence (looked up): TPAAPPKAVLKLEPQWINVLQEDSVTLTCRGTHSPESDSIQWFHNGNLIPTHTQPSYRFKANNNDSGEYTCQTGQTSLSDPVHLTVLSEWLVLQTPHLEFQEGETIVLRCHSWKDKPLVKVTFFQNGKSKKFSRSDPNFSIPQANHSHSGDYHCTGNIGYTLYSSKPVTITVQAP
# B1: GpH7-A5/GpH7-B3 variant Q295_05P/GpL16-k0 (antibody, human IgG1, kappa)
# heavy 1: not shown
# heavy 2: not shown
# light: DIVMTQSPLSLPVTPGEPASISCQASESLVHSNRNTYLHWYLQKPGQSPQLLIYKVSNRFSGVPDRFSGSGSGTDFTLKISRVEAEDVGVYYCSQNTHVPPTFGQGTKVEIERTVAAPSVFIFPPSDEQLKSGTASVVCLLNNFYPREAKVQWKVDNALQSGNSQESVTEQDSKDSTYSLSSTLTLSKADYEKHKVYACEVTHQGLSSPVTKSFNRGEC
# notes: Heterodimerized anti-glypican-3 IgG1; alteration only in the GpH7-B3 chain, EU numbering; also called He Ab
# B2: GpH7-A5/GpH7-B3 variant Q295_14T/GpL16-k0 (antibody, human IgG1, kappa)
# heavy 1: not shown
# heavy 2: not shown
# light: B1 light
# notes: as for B1
# B3: GpH7-A5/GpH7-B3 variant Y296_19Q/GpL16-k0 (antibody, human IgG1, kappa)
# heavy 1: not shown
# heavy 2: not shown
# light: B1 light
# notes: as for B1
# B4: GpH7-A5/GpH7-B3 variant Y296_13S/GpL16-k0 (antibody, human IgG1, kappa)
# heavy 1: not shown
# heavy 2: not shown
# light: B1 light
# notes: as for B1
# B5: GpH7-A5/GpH7-B3 variant Q295_11K/GpL16-k0 (antibody, human IgG1, kappa)
# heavy 1: not shown
# heavy 2: not shown
# light: B1 light
# notes: as for B1
# B6: GpH7-A5/GpH7-B3 variant Q295_13S/GpL16-k0 (antibody, human IgG1, kappa)
# heavy 1: not shown
# heavy 2: not shown
# light: B1 light
# notes: as for B1
# B7: GpH7-A5/GpH7-B3 variant Y296_08L/GpL16-k0 (antibody, human IgG1, kappa)
# heavy 1: not shown
# heavy 2: not shown
# light: B1 light
# notes: as for B1
# B8: GpH7-A5/GpH7-B3 variant Q295_12R/GpL16-k0 (antibody, human IgG1, kappa)
# heavy 1: not shown
# heavy 2: not shown
# light: B1 light
# notes: as for B1
# B9: GpH7-A5/GpH7-B3 variant Q295_09D/GpL16-k0 (antibody, human IgG1, kappa)
# heavy 1: not shown
# heavy 2: not shown
# light: B1 light
# notes: as for B1
# B10: GpH7-A5/GpH7-B3 variant Q295_16H/GpL16-k0 (antibody, human IgG1, kappa)
# heavy 1: not shown
# heavy 2: not shown
# light: B1 light
# notes: as for B1
# B11: GpH7-A5/GpH7-B3 variant Y296_07I/GpL16-k0 (antibody, human IgG1, kappa)
# heavy 1: not shown
# heavy 2: not shown
# light: B1 light
# notes: as for B1
# B12: GpH7-A5/GpH7-B3 variant Y296_03V/GpL16-k0 (antibody, human IgG1, kappa)
# heavy 1: not shown
# heavy 2: not shown
# light: B1 light
# notes: as for B1
# B13: GpH7-A5/GpH7-B3 variant Y296_05P/GpL16-k0 (antibody, human IgG1, kappa)
# heavy 1: not shown
# heavy 2: not shown
# light: B1 light
# notes: as for B1
# B14: GpH7-A5/GpH7-B3 variant Y296_11K/GpL16-k0 (antibody, human IgG1, kappa)
# heavy 1: not shown
# heavy 2: not shown
# light: B1 light
# notes: as for B1
# B15: GpH7-A5/GpH7-B3 variant Y296_12R/GpL16-k0 (antibody, human IgG1, kappa)
# heavy 1: not shown
# heavy 2: not shown
# light: B1 light
# notes: as for B1
# B16: GpH7-A5/GpH7-B3 variant S298_05P/GpL16-k0 (antibody, human IgG1, kappa)
# heavy 1: not shown
# heavy 2: not shown
# light: B1 light
# notes: as for B1
# B17: GpH7-A5/GpH7-B3 variant Q295_15Y/GpL16-k0 (antibody, human IgG1, kappa)
# heavy 1: not shown
# heavy 2: not shown
# light: B1 light
# notes: as for B1
# B18: GpH7-A5/GpH7-B3 variant S298_02A/GpL16-k0 (antibody, human IgG1, kappa)
# heavy 1: not shown
# heavy 2: not shown
# light: B1 light
# notes: Heterodimerized anti-glypican-3 IgG1; S298A (EU numbering) only in the GpH7-B3 chain; also called He Ab; GpH7-A5/GpH7-B3-15-02A/GpL16-k0
# B19: GpH7-A5/GpH7-B3 variant Q295_20W/GpL16-k0 (antibody, human IgG1, kappa)
# heavy 1: not shown
# heavy 2: not shown
# light: B1 light
# notes: as for B1
# B20: GpH7-A5/GpH7-B3 variant S298_07I/GpL16-k0 (antibody, human IgG1, kappa)
# heavy 1: not shown
# heavy 2: not shown
# light: B1 light
# notes: as for B1
# B21: GpH7-A5/GpH7-B3 variant S298_03V/GpL16-k0 (antibody, human IgG1, kappa)
# heavy 1: not shown
# heavy 2: not shown
# light: B1 light
# notes: as for B1
# B22: GpH7-A5/GpH7-B3 variant S298_04F/GpL16-k0 (antibody, human IgG1, kappa)
# heavy 1: not shown
# heavy 2: not shown
# light: B1 light
# notes: as for B1
# B23: GpH7-A5/GpH7-B3 variant Y296_02A/GpL16-k0 (antibody, human IgG1, kappa)
# heavy 1: not shown
# heavy 2: not shown
# light: B1 light
# notes: as for B1
# B24: GpH7-A5/GpH7-B3 variant Y296_01G/GpL16-k0 (antibody, human IgG1, kappa)
# heavy 1: not shown
# heavy 2: not shown
# light: B1 light
# notes: as for B1
# B25: GpH7-A5/GpH7-B3 variant S298_01G/GpL16-k0 (antibody, human IgG1, kappa)
# heavy 1: not shown
# heavy 2: not shown
# light: B1 light
# notes: as for B1
# B26: GpH7-A5/GpH7-B3 variant Q295_07I/GpL16-k0 (antibody, human IgG1, kappa)
# heavy 1: not shown
# heavy 2: not shown
# light: B1 light
# notes: as for B1
# B27: GpH7-A5/GpH7-B3 variant Q295_18N/GpL16-k0 (antibody, human IgG1, kappa)
# heavy 1: not shown
# heavy 2: not shown
# light: B1 light
# notes: as for B1
# Key:
# [1] = target: T1, FcγRIIb extracellular domain with …; test: SPR (Biacore), antibody captured via antigen peptide, FcγR as analyte; relative binding
# Experimental: (§1) The heterodimerized antibodies He Abs in which one of the H chains was introduced with an alteration were assayed for their binding activities to each activating FcγR and inhibitory FcγR according to the method described in Example 4. […] The activating FcγRs in FIGS. 26, 27, 28, and 29 are FcγRIa, FcγRIIa (R), FcγRIIa (H), and FcγRIIIa, respectively.
# (§2) Analysis of interaction between objective antibody and the FcγR was carried out using Biacore T100 (GE Healthcare). HBS-EP+ (GE Healthcare) was used as the running buffer, and the measurement temperature was set to 25° C. Chips produced by immobilizing the antigen peptide by the amine coupling method to a Series S Sencor Chip CM5 (GE Healthcare), or alternatively, chips produced by allowing preliminarily biotinylated antigen peptides to interact with and immobilize onto a Series S Sensor Chip SA (certified) (GE Healthcare) were used. Antibodies of interest were captured onto an antigen peptide-immobilized chip, and allowed to interact to each FcγR diluted with running buffer. To regenerate and repeatedly use the chip, the antibodies captured on the chip were washed off by reacting 10 mM glycine-HCl, pH 1.5.
# [2] = target: T2, FcγRIa extracellular domain with C-terminal His tag (human, UniProt P12314 16-292); test: as above
# T2 construct: extracellular domain; also called FcgRI; 1a
# Experimental: as §1, §2
# [3] = target: T2, FcγRIa extracellular domain with …; test: SPR (Biacore); He/Con_1a divided by He/Con_2b (FcγRIa binding over FcγRIIb binding)
# Experimental: as §1, §2
# T2 sequence (P12314 16-292): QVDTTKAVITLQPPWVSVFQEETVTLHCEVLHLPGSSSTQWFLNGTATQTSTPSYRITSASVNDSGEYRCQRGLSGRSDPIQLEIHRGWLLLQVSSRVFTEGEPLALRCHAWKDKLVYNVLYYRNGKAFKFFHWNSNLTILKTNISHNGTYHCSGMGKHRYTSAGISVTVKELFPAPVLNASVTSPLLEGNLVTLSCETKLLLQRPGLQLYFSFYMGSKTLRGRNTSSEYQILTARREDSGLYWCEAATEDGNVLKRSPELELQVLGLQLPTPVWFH
Binder,He/Con_2b [1],He/Con_1a [2],He_1a/2b (Ia/IIb) [3] [ratio]
B1,67.5 % of GpH7-A5/GpH7-B3/GpL16-k0 (=100),103 % of GpH7-A5/GpH7-B3/GpL16-k0 (=100),1.53
B2,66.8 % of GpH7-A5/GpH7-B3/GpL16-k0 (=100),103 % of GpH7-A5/GpH7-B3/GpL16-k0 (=100),1.54
B3,89.3 % of GpH7-A5/GpH7-B3/GpL16-k0 (=100),112 % of GpH7-A5/GpH7-B3/GpL16-k0 (=100),1.25
B4,86.3 % of GpH7-A5/GpH7-B3/GpL16-k0 (=100),105 % of GpH7-A5/GpH7-B3/GpL16-k0 (=100),1.22
B5,70.4 % of GpH7-A5/GpH7-B3/GpL16-k0 (=100),101 % of GpH7-A5/GpH7-B3/GpL16-k0 (=100),1.44
B6,56.9 % of GpH7-A5/GpH7-B3/GpL16-k0 (=100),102 % of GpH7-A5/GpH7-B3/GpL16-k0 (=100),1.79
B7,82.3 % of GpH7-A5/GpH7-B3/GpL16-k0 (=100),104 % of GpH7-A5/GpH7-B3/GpL16-k0 (=100),1.26
B8,65.2 % of GpH7-A5/GpH7-B3/GpL16-k0 (=100),100 % of GpH7-A5/GpH7-B3/GpL16-k0 (=100),1.54
B9,60.8 % of GpH7-A5/GpH7-B3/GpL16-k0 (=100),100 % of GpH7-A5/GpH7-B3/GpL16-k0 (=100),1.65
B10,62.7 % of GpH7-A5/GpH7-B3/GpL16-k0 (=100),102 % of GpH7-A5/GpH7-B3/GpL16-k0 (=100),1.64
B11,84.3 % of GpH7-A5/GpH7-B3/GpL16-k0 (=100),104 % of GpH7-A5/GpH7-B3/GpL16-k0 (=100),1.24
B12,79.3 % of GpH7-A5/GpH7-B3/GpL16-k0 (=100),104 % of GpH7-A5/GpH7-B3/GpL16-k0 (=100),1.31
B13,36.6 % of GpH7-A5/GpH7-B3/GpL16-k0 (=100),95.6 % of GpH7-A5/GpH7-B3/GpL16-k0 (=100),2.61
B14,72.8 % of GpH7-A5/GpH7-B3/GpL16-k0 (=100),105 % of GpH7-A5/GpH7-B3/GpL16-k0 (=100),1.44
B15,79.5 % of GpH7-A5/GpH7-B3/GpL16-k0 (=100),106 % of GpH7-A5/GpH7-B3/GpL16-k0 (=100),1.34
B16,11.9 % of GpH7-A5/GpH7-B3/GpL16-k0 (=100),91.6 % of GpH7-A5/GpH7-B3/GpL16-k0 (=100),7.7
B17,65.4 % of GpH7-A5/GpH7-B3/GpL16-k0 (=100),102 % of GpH7-A5/GpH7-B3/GpL16-k0 (=100),1.56
B18,73.4 % of GpH7-A5/GpH7-B3/GpL16-k0 (=100),107 % of GpH7-A5/GpH7-B3/GpL16-k0 (=100),1.45
B19,44.4 % of GpH7-A5/GpH7-B3/GpL16-k0 (=100),93.7 % of GpH7-A5/GpH7-B3/GpL16-k0 (=100),2.11
B20,70.6 % of GpH7-A5/GpH7-B3/GpL16-k0 (=100),107 % of GpH7-A5/GpH7-B3/GpL16-k0 (=100),1.52
B21,64.5 % of GpH7-A5/GpH7-B3/GpL16-k0 (=100),110 % of GpH7-A5/GpH7-B3/GpL16-k0 (=100),1.7
B22,65.4 % of GpH7-A5/GpH7-B3/GpL16-k0 (=100),109 % of GpH7-A5/GpH7-B3/GpL16-k0 (=100),1.67
B23,82 % of GpH7-A5/GpH7-B3/GpL16-k0 (=100),103 % of GpH7-A5/GpH7-B3/GpL16-k0 (=100),1.26
B24,79.3 % of GpH7-A5/GpH7-B3/GpL16-k0 (=100),103 % of GpH7-A5/GpH7-B3/GpL16-k0 (=100),1.29
B25,80.1 % of GpH7-A5/GpH7-B3/GpL16-k0 (=100),104 % of GpH7-A5/GpH7-B3/GpL16-k0 (=100),1.29
B26,84.3 % of GpH7-A5/GpH7-B3/GpL16-k0 (=100),103 % of GpH7-A5/GpH7-B3/GpL16-k0 (=100),1.22
B27,64.9 % of GpH7-A5/GpH7-B3/GpL16-k0 (=100),102 % of GpH7-A5/GpH7-B3/GpL16-k0 (=100),1.58
